Entries after “also recorded” stand apart in the source; their conditions may differ.
Legend:
[1] = molecular target: T1, Recombinant human Factor IX (rhFIX) (Homo sapiens, UniProt P00740, T194A); test: BIAcore kinetics of Factor IX binding to mAb on protein A surface; settings: rhFIX 49 nM, 5 mM Ca2+, biosensor
T1 construct: purchased Genetics Institute
Experimental: The kinetics of Factor IX binding to SB 249417 was assessed by BIAcore analysis with antibody bound to an immobilized protein A surface. Recombinant human Factor IX (rhFIX, Genetics Institute) at 49 nM was used and measurements performed in the presence of 5 mM Ca^2+. The interaction was characterized by rapid association, kass 2.0×10^5 M^−1 s^−1 and relatively slow off-rate, kdiss=4.1×10^−4 s^−1.

BC2 antibody = test: BiaCore binding of Factor IX/Factor VII constructs to immobilized BC2; settings: 200 nM construct, 25 mM MOPS pH 7.4, 0.15 M NaCl, 5 mM CaCl2
Experimental: A library of chimeric constructs composed of sequences of Factor IX spliced into the framework of the homologous protein Factor VII was constructed and used to map the epitope for the Factor IX BC2 mAb. See Cheung et al., Thromb. Res. 80, 419-427 (1995). Binding was measured using a BiaCore 2000 surface plasmon resonance device. The BC2 antibody was coupled directly to the chip using the NHS/EDC reaction. Binding was measured by 2 min of contact time at 20 uL/min with 200 nM of each of the given constructs in 25 mM MOPS, pH 7.4, 0.15 M NaCl, 5 mM CaCl2. Dissociation was monitored for 3 min using the same buffer with no protein. No binding was detected to the wild type construct in the presence of 50 mM EDTA.

[2] = tested on: rat carotid artery thrombosis; test: Rat carotid artery thrombosis model, humanized mAbs, Example 8; assay type: in vivo; settings: 3.0 mg/kg i.v. bolus, 60 minutes after onset of injury
Experimental: In order to evaluate the efficacy of humanized anti-Factor IX antibodies in prevention of arterial thrombosis, the rat carotid artery thrombosis model as described above in Example 3 was used. Baseline parameters were established for carotid blood flow, arterial pressure, heart rate, vessel patency and activated partial thromboplastin time (aPTT). Fifteen minutes thereafter, carotid injury was effected for […]. The parameters were determined 60 minutes after onset of carotid injury. Carotid thrombus was also extracted from the carotid artery and weighed.
All agents were administered intravenously 15 minutes before the onset of carotid injury. The following treatments were examined and compared to the anti-Factor IX mAb BC2.

T1 sequence (P00740 47-461 T194A): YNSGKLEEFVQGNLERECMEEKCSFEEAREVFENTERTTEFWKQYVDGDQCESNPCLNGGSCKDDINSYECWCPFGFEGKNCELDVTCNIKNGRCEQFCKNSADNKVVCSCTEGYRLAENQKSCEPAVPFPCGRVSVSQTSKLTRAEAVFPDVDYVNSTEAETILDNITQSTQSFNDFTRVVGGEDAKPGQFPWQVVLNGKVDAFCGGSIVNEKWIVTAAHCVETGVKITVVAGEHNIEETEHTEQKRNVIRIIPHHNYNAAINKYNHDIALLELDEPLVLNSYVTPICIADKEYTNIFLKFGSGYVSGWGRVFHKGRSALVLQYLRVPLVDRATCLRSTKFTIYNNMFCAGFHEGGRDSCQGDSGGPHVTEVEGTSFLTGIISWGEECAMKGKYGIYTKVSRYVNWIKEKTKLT

B1: Chf9: mouse-human chimeric antibody directed against human Factor IX, chains F9CHLC and F9CHHC with BC2 variable regions (antibody)
heavy: QIQLVQSGPELKKPGETVKISCKASGYTFTNYGMNWVKQAPGKGLKWMGWINTRNGKSTYVDDFKGRFAFSLESSASTANLQIDNLKDEDTATYFCTREGNMDGYFPFTYWGQGTLVTVSA
light: QIVLSQSPAILSASPGEKVTMTCRASSSVNYMHWYQQKPGSSPKPWIYATSNLASGVPARFSGSGSGTSYSLTISRVEAEDAATYYCQQWSINPRTFGGGTKLEIK
kass [1]: 240000 M⁻¹ s⁻¹ | kdiss [1]: 0.0003 s⁻¹

B2: IX-A/VII: construct with the Factor IX gla and aromatic stack domains in Factor VII (protein)
chain: YNSGKLEEFVQGNLERECMEEKCSFEEAREVFENTERTTEFWKQYVDGDQCASSPCQNGGSCKDQLQSYICFCLPAFEGRNCETHKDDQLICVNENGGCEQYCSDHTGTKRSCRCHEGYSLLADGVSCTPTVEYPCGKIPILEKRNASKPQGRIVGGKVCPKGECPWQVLLLVNGAQLCGGTLINTIWVVSAAHCFDKIKNWRNLIAVLGEHDLSEHDGDEQSRRVAQVIIPSTYVPGTTNHDIALLRLHQPVVLTDHVVPLCLPERTFSERTLAFVRFSLVSGWGQLLDRGATALELMVLNVPRLMTQDCLQQSRKVGDSPNITEYMFCAGYSDGSKDSCKGDSGGPHATHYRGTWYLTGIVSWGQGCATVGHFGVYTRVSQYIEWLQKLMRSEPRPGVLLRAPFP
Degree of Binding to BC2 (BC2 antibody): exhibit binding to BC2; also recorded: Binds

B3: SB 257732: humanized anti-Factor IX mAb, heavy chain F9HZHC 3-0 (SEQ ID NO: 89), light chain F9HZLC 3-0 (SEQ ID NO: 99) (antibody, V domains shown)
VH: MGWSCIILFLVATATGVHSQIQLVQSGSELKKPGASVKVSCKASGYTFTNYGMNWVRQAPGQGLEWMGWINTRNGKSTYVDDFKGRFVFSLDTSVSTAYLQISSLKAEDTAVYFCTREGNMDGYFPFTYWGQGTLVTVSS
VL: MGWSCIILFLVATATGVHSQIVLTQSPSSLSASVGDRVTITCRASSSVNYMHWYQQKPGKAPKPWIYATSNLASGVPSRFSGSGSGTDYTLTISSLQPEDFATYYCQQWSINPRTFGGGTKLEIKRTVV
kass [1]: 1.1e+06 M⁻¹ s⁻¹ | kdiss [1]: 0.0012 s⁻¹

B4: SB 249413: humanized anti-Factor IX mAb, heavy chain F9HZHC 1-0 (SEQ ID NO: 31), light chain F9HZLC 1-0 (SEQ ID NO: 44) (antibody, V domains shown)
VH: QVQLVQSGSELKKPGASVKVSCKASGYTFTNYGMNWVRQAPGQGLEWMGWINTRNGKSTYVDDFKGRFVFSLDTSVSTAYLQISSLKADDTAVYYCAREGNMDGYFPFTYWGQGTLVTVSS
VL: EIVLTQSPATLSLSPGERATLSCRASSSVNYMHWYQQRPGQAPRLLIYATSNLASGIPARFSGSGSGTDFTLTISSLEPEDFAVYYCQQWSINPRTFGGGTKVEIKR
effect on aPTT (FIG. 8) [2]: modest effect | kass [1]: 650000 M⁻¹ s⁻¹ | kdiss [1]: 0.0028 s⁻¹

B5: SB 249415: humanized anti-Factor IX mAb, heavy chain F9HZHC 1-1 (SEQ ID NO: 52), light chain F9HZLC 1-1 (SEQ ID NO: 57) (antibody, V domains shown)
VH: QVQLVQSGSELKKPGASVKVSCKASGYTFTNYGMNWVRQAPGQGLKWMGWINTRNGKSTYVDDFKGRFVFSLDSSVSTAYLQISSLKADDTAVYYCTREGNMDGYFPFTYWGQGTLVTVSS
VL: EIVLTQSPATLSLSPGERATLSCRASSSVNYMHWYQQRPGQAPKPWIYATSNLASGVPARFSGSGSGTDFTLTISSLEPEDFAVYYCQQWSINPRTFGGGTKVEIKR
effect on aPTT (FIG. 8) [2]: modest effect | kass [1]: 750000 M⁻¹ s⁻¹ | kdiss [1]: 0.00018 s⁻¹

B6: SB 257731: humanized anti-Factor IX mAb, heavy chain F9HZHC 1-1 (SEQ ID NO: 52), light chain F9HZLC 1-3 (SEQ ID NO: 78) (antibody, V domains shown)
VH: QVQLVQSGSELKKPGASVKVSCKASGYTFTNYGMNWVRQAPGQGLKWMGWINTRNGKSTYVDDFKGRFVFSLDSSVSTAYLQISSLKADDTAVYYCTREGNMDGYFPFTYWGQGTLVTVSS
VL: MGWSCIILFLVATATGVHSQIVLTQSPATLSLSPGERATLSCRASSSVNYMHWYQQRPGQAPKPWIYATSNLASGVPARFSGSGSGTDYTLTISSLEPEDFAVYYCQQWSINPRTFGGGTKVEIK
effect on aPTT (FIG. 8) [2]: modest effect | kass [1]: 920000 M⁻¹ s⁻¹ | kdiss [1]: 0.00099 s⁻¹

B7: SB 249416: humanized anti-Factor IX mAb, heavy chain F9HZHC 1-1 (SEQ ID NO: 52), light chain F9HZLC 1-2 (SEQ ID NO: 62) (antibody, V domains shown)
VH: QVQLVQSGSELKKPGASVKVSCKASGYTFTNYGMNWVRQAPGQGLKWMGWINTRNGKSTYVDDFKGRFVFSLDSSVSTAYLQISSLKADDTAVYYCTREGNMDGYFPFTYWGQGTLVTVSS
VL: EIVLTQSPATLSLSPGERATLSCRASSSVNYMHWYQQRPGQAPKPWIYATSNLASGVPARFSGSGSGTDYTLTISSLEPEDFAVYYCQQWSINPRTFGGGTKVEIKR
effect on aPTT (FIG. 8) [2]: modest effect | kass [1]: 520000 M⁻¹ s⁻¹ | kdiss [1]: 0.00041 s⁻¹

B8: IX LC/VII HC: construct containing the Factor IX light chain and Factor VII heavy chain (protein)
chain: YNSGKLEEFVQGNLERECMEEKCSFEEAREVFENTERTTEFWKQYVDGDQCESNPCLNGGSCKDDINSYECWCPFGFEGKNCELDVTCNIKNGRCEQFCKNSADNKVVCSCTEGYRLAENQKSCEPAVPFPCGRVSVSQTSKLTRIVGGKVCPKGECPWQVLLLVNGAQLCGGTLINTIWVVSAAHCFDKIKNWRNLIAVLGEHDLSEHDGDEQSRRVAQVIIPSTYVPGTTNHDIALLRLHQPVVLTDHVVPLCLPERTFSERTLAFVRFSLVSGWGQLLDRGATALELMVLNVPRLMTQDCLQQSRKVGDSPNITEYMFCAGYSDGSKDSCKGDSGGPHATHYRGTWYLTGIVSWGQGCATVGHFGVYTRVSQYIEWLQKLMRSEPRPGVLLRAPFP
Degree of Binding to BC2 (BC2 antibody): exhibit binding to BC2; also recorded: Binds
